# According to article PMC12597282:
# Target: E546N mutant human inducible NOS oxygenase/FMN (oxyFMN) construct (human) (UniProt P35228)
# Assay: cross-linking; DSBU 250 uM with 5 uM iNOS oxyFMN (co-purified with CaM), 20 mM HEPES, 100 mM NaCl, 1 mM CaCl2, pH 7.5, 30 min, room temperature; SDS-PAGE, dimeric band digested in gel; LC-MS/MS on timsTOF (DDA-PASEF, then PRM-PASEF for quantitation), lysine-lysine cross-links only
# UniProt P35228, sequence (P35228 71-723 E546N): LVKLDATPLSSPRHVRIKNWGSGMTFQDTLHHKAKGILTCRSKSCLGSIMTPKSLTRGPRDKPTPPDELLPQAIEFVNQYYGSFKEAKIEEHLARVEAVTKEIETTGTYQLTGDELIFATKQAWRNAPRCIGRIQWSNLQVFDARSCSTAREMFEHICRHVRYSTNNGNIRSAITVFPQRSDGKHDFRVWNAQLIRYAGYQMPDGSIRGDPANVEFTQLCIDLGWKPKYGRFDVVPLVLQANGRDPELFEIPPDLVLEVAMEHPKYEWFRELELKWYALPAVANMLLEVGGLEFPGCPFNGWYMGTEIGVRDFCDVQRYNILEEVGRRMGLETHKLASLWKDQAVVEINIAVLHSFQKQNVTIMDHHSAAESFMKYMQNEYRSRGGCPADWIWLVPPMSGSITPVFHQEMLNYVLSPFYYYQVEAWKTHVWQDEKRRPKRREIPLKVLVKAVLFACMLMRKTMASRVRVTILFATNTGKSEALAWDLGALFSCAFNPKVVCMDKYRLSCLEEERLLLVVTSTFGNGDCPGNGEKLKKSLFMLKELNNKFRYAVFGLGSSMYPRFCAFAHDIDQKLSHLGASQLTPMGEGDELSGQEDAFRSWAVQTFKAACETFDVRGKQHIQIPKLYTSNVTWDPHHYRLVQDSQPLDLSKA
substance,measurement,value
calmodulin (from UniProt P0DP23 1-149) (natural protein),log2 fold-change (E546N/wt) of the abundance of cross-link 75–516 CaM-helix (intra) (log2(E546N/wt)),-1.04
